Test: Serum stability of 64Cu-labelled Sar-peptides by radio-HPLC
Assay type: in vitro ADME
Details: human male AB serum, 37° C.
Method: Human male AB serum (200 μL) was added to a solution of [^64CuL^1-Tyr^3-octreotate]^2+ (200 μL). This solution was incubated in a water bath at 37° C. At time points of 1 hr, 4 hr and 20 hr an aliquot of this serum solution (100 μL) was removed for radio-HPLC analysis: acetonitrile (200 μL) was added to the serum aliquot to precipitate serum proteins. This mixture was filtered and the acetonitrile evaporated under a stream of argon gas. The final volume was <100 μL. The solution was frozen at −70° C. until injection onto the HPLC column. 1 hr: Retention time 12.716 min, >95% radiochemical yield; 4 hr: Retention time 12.725 min, >95% radiochemical yield; 20 hr: Retention time 12.800 min, >95% radiochemical yield.
A single time point serum stability study for [^64CuL^1-Lys3-bombesin]^2+ was conducted in the same way as studies for [^64CuL^1-Tyr^3-octreotate]^2+. An aliquot of [^64CuL^1-Lys3-bombesin]^2+ (200 μL) was added to human male AB serum and incubated at 37° C. After 2 hr, the sample was subjected to the same treatment as described above and injected onto the HPLC column. 2 hr: Retention time 12.828 min, >95% radiochemical yield.

Row | SMILES | radiochemical yield (intact complex by radio-HPLC) after incubation in serum (2 hr) [%] | radiochemical yield (intact complex by radio-HPLC) after incubation in serum (1 hr) [%] | radiochemical yield (intact complex by radio-HPLC) after incubation in serum (4 hr) [%] | radiochemical yield (intact complex by radio-HPLC) after incubation in serum (20 hr) [%]
1 | CSCC[C@H](NC(=O)[C@H](CC(C)C)NC(=O)[C@H](Cc1c[nH]cn1)NC(=O)CNC(=O)[C@@H](NC(=O)[C@H](C)NC(=O)[C@H](Cc1c[nH]c2ccccc12)NC(=O)[C@H](CCC(N)=O)NC(=O)[C@H](CC(N)=O)NC(=O)CNC(=O)[C@H](CC(C)C)NC(=O)[C@H](CCCCNC(=O)CCCC(=O)NC12CNCCNCC(N)(CNCCNC1)CNCCNC2)NC(=O)[C@H](CCC(N)=O)NC(=O)[C@@H]1CCC(=O)N1)C(C)C)C(N)=O (64Cu complex, metal not drawn) [[^64CuL^1-Lys3-bombesin]^2+] | > 95 |  |  | 
2 | CC(O)[C@H](NC(=O)C1CSSC[C@H](NC(=O)[C@@H](Cc2ccccc2)NC(=O)CCCC(=O)N[C@]23CNCCNC[C@]4(N)C[N]5CC[N](C2)[Cu]52([CH3])([CH3])[N](CC[N]2C3)C4)C(=O)N[C@@H](Cc2ccc(O)cc2)C(=O)N[C@H](Cc2c[nH]c3ccccc23)C(=O)N[C@@H](CCCCN)C(=O)N[C@@H](C(C)O)C(=O)N1)C(=O)O (stereo partly shown) [[^64CuL^1-Tyr^3-octreotate]^2+] |  | > 95 | > 95 | > 95
